Test results as given in the domain aggregation screens of Martell et al. (2025).

Assay: soluble fraction after stress (log2 fold change); higher = more stays soluble; pooled small domains, quantitative proteomics
Conditions: stress: pH 4
How it was run: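 Values are log2 fold changes, and higher ones mean more of the domain stayed soluble. Each fold change reflects the soluble amount of a domain after acid stress and is taken as a measure of aggregation propensity. The stress was pH 4, applied to pooled custom libraries of small protein domains analysed by high-throughput quantitative proteomics.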

| Sequence | soluble fraction (log2) |
| --- | --- |
| HMSEFSDRFRLLKDESGATLKELSEQLDITVPNLSYYMKGREPSYDILIKIADYFGVTTDWLIGRTDER | -0.643 |
| HMSNEIIFNQKSITRFLMNPENNSPMIYPLELGHEMKVIKKNNDWLNVTDEKTGLNGWVISDDFGLTKPEG | -0.133 |
| HMDRASGEEEALKEAEDAISRVWEFDGPVELNPQNSYLRRLQHELASRYNVKSVSIGQEPNRRVVYYK | -0.428 |
| HMDNLATRILKELNNNDGFLPLSDKSQPEAIYQAFGISKKSYKTAIGTLYKKRLITISENGIQLTD | -0.2 |
| HMQVSDLSAIDSLIDKVLSEQQAAVQDFRSGQGKAMGFLIGKVMQASDGKANPKVIRELMGKKLA | -0.0313 |
| HMISKRFQIDEENAHKRIDIFLSHEFDSISRGIVQELIVKGEVLVNDKVTKRNYKLKTGDLVDITINL | 0.247 |
| HMGEWNSVFSVPSSVVDKHLKTASSVYVKVLLVILRNAGNRISDQQISEQLSVPVDEVQEAIRYWNAAGIF | -0.816 |
| HMQETILFGQQKAINNLSSDTGLSENDLDSYLKKRYKKPLYQLTQSEGADIINGFQDGSLSKNSILDYIKP | 0.22 |
| HMTMKNPNGYGSVINLGKGRRRPWAARVTTGLVYDEKKDKLIQRYKYIGYADTRKEAHQILAEYNAGLPI | 0.0906 |
| HMEETIVFGQQKAINALSSDAGLSSNELDSYLKKRYKRPLYQLSKSEGAELIQGFQDGSLSKASIMDYVS | 0.346 |
| HMDASSTGFLGKHVQIVGLVSQPHLNGRRGVASRFDSNRRRYLVRLDEIDGHAEVVAFRPDNLVLSNLL | -0.0982 |
| HMRITRREQQVLHLLAMGMTTREIAGHINLTERTVRNRISNLRDKLGAQTASQLLAKAVAQGLIEP | 0.426 |
| HMADQVVGQLGMVTQRIDNLQQTGRVSANGLDWAARSENGQPIPQGMPVEVLRIEGVKLIVRPVN | -0.00119 |
| HMENRILIPTAENIGERLDRYISSELDAPRSQVQIWIDSGLVAVSGGLKPKNYRLREGDEIEVTIPDPV | -0.0637 |
| HMVGKIVVPHLEGKPAEMARDILARDGFKSVHEEVLPSAEFGAGRVVRTEPHAGTNVAKTDPVTIFVSVGL | -0.0761 |
| HMPELFLFNPDTASAATFQALGFSARQAGVLIHFREALGGRFGSVEQFSKSYVVDSATLERLRPYMVF | -0.029 |
| HMKEPPTLEEIKNYFASKLSTELESEKFFNYFESNGWLVGGKTPMKNWQSAANNWLINMSKFN | -0.323 |
| HMEVLSYYGSRGQEVVNIQTKLKQWGYYKGNIDGIFGNLTYQAVREFQRKNGLKVDGIVGPETLAALGLPT | -0.479 |
| HMAQILEPSVALKKLLELKQAGFEDETLVGWIRKVEFTRPLTPDDLLEWKGAGISQAVIRAAM | 0.00449 |
| HMSPTSSRAAQARIRKMIESESPLKPISDSQLAARLGEEGISIARRTVAKYREQMNILPASQRRGV | -0.0284 |
| HMKMLKAPIPGTIIEVKVNPGQTVNDGDVAVVLEAMKMESDIHFNSSGKVKKIHVNKGDSVQEGDDLIELE | -0.605 |
| HMQISDTSELEAVVQDILKANMDVVAKIKAGKTNSANFLMGQVMKLTKGRAKPDTVLQLILDAVKQ | -0.374 |
| HMEEKVEVPNLSGKTYQQAKALLESYGLVAAKGGEEESEEPVGKVSRWSSAGKSVKKGTTITVWISGGI | 0.1 |
| HMSAVNLNDDEKAVYKSIKSGIRSLDELSLRTGMKIYELMAITVSLEMKGLVTKSPDGTLDAT | -0.0308 |
| HMKDSKSALQEYALERKMGLPVYEVVDRSGPDHAPQFVIAVSLGEWRLEAKGASKRQAEQQAASLMLEEI | -0.0445 |

| Sequence | soluble fraction (log2) |
| --- | --- |
| HMSDIDIDVENDRAALAIAGGKLNHLVGARGEVLDALQELTRLAVQTSLGERSRLMLDIDNFRSD | 0.0463 |
| HMSSARKVTVRGVRELPGIFMEKAEILDDGVRFFYRGEMEKLIGALQGLPIRDLTITEPDLEEVFLHFY | -1.43 |
| HMIIDPQIRTLWTSQIIDILKSNPKRSIRSILELYPSNKESWVLIILQELIGEEKIIRDLDYLYFNK | -1.26 |
| HMRDPFDALSARERAVASLVQRGLRNKEVASELGLTEGTVKVHLHKVFDKLGIRGRTELILLAQER | -0.397 |
| HMEDYTPLQELGLKARYIELLEKGGIFSVEDLVQKSVDDLKDIDGIGEKTAKEIWEIVDSMVDF | -0.308 |
| HMFNKTKVPNFIDMNYYEEIEGNSEYDKFNFADPITKNDDTKAPGTVIDQTPEKGTRIDEEKTVIQLTIA | -0.149 |
| HMQDNLKKYMDKLSQRDAELIVYKYLWNMSEKEISEMFHIKQEQVHVYVGRAKKRLFKIIKKEME | 0.111 |
| HMTKEEREKREKYEKLMKKAEELTAAKNHREVINVLGQAKAYATAAQLKEIEEKIKAATSEMNK | 0.257 |
| HMGKLQFREKLNGILELGKEKHRVLTMEDVEKYFEEDALSEEQMELVYDYLLSQKIAVTGYVKK | 0.414 |
| HMRPADTAAMLKYLSSGAVKGIGGALAGRIIEAFGDESIKVIEEDPARLATVKGITLKKAKEISEEMQRVN | 0.0199 |
| HMDHVEDRMVLEVVLKKLTEEERRIVMLHAVSGLKHREIAKALDIPLSTVLSKYKRTLKKLEAYLMEME | -0.936 |
| HMSHGSIYFSGKTGLKGSVDINGTVNSINKKIFLKPGNYNFLIKADGYKNLKGSFQISKGDKKFVELVLIP | -0.0804 |
| HMEELVGFEEKVRSILTSPLSAKEIKEKTHIEIDTRKLSKMLSELSFIKTEKKNGKKIFRLVS | -0.0997 |
| HMPREVKLPPDLLDALEASPEAKAFFLQLSYTHQKEYAQWIEEAKQEATRQRRLEKTVQMLLEGRRT | -0.0407 |
| HMQTKEVDYGTFMSMIDEKNIGTVEIGDSQIVFTDKDNKNLYETGVMNDPDLAQRLHDAGATFSS | 0.0149 |
| HMKTKTAPPDSIPPAWLKESATLRPDLNQAQIKASAEVFLDHHRAKGTTLADWRPAWRNWIRRERA | 0.0552 |
| HMLGSQQAYTDALRLTGLPVDIEVIESDRLPFLIPMRYSLDQHLIEVNVRYPDTRAIRVQQMVEELFHA | -0.415 |
| HMSREMIKSELESISGLGKSGIEKLYTHFINIENIKSASLENIRNIPGISYKVADNIYKHFH | 0.385 |
| HMSSASETQYELALQAMRDGDNDAALRSLSTALASGFSDWQRIDEEPLLAALANDVRFQVLRSRWK | -0.92 |
| HMEKNKERIAFLKKRLEMYYEAEEKILQGQSYTIGSRTLTRTSLANVQSKIKELESEISALETRGN | -0.653 |
| HMSLPDREVVLETSSDSYYHFKTDHFQRQITYSAVRNAPVRLVTISAERAFEVISLNRRGERPEHLE | -1.77 |
| HMGPGSYVVNVKPYAYVSINGRDYGRTPVGPIRLDPGTYKVVFTHEHRPSFSRTIVVEAGRETFETFPYPG | -0.107 |
| HMKEVDSESAFAERGISEVWIPALQKMGILTLEALDAANPNKVFNDLGGMRKKLKIDAAMPTKDEVTAWIQ | -0.053 |
| HMQLTDSDFTRLYTYVKNSYGIDLSKKKQLISSRLTNMLIQQGYRDFTQYTDEIISGKNPEMVSAMLNRLT | 0.0695 |
| HMDKGQRGWINLVSVPTARVIIDGYDTGHETPLYGYEVERGKRKVTLISLDGTYERTYEIRIEPGTTTRVR | -0.947 |

| Sequence | soluble fraction (log2) |
| --- | --- |
| HMGVEVPRGDGSTVVRVRAGSSLADFAERIGADPAALITVLFRMGEMATVNQSLDEDTFKLLGAELGYDVQ | -0.721 |
| HMELNILELKSKERKISLEDHLYIKSFNFDNETNEYFYRLAFNSSKDLKNFKATINNDKTISIINFEI | -2.14 |
| HMELPVNSIRVPDVVGLSLREAMQAMTDAGVPWQSVQAKGVGFVSRQSPEAGTVTQLRRVRLELKLF | -0.00108 |
| HMVEMPEVGVKVRIEVESHNGSTNFEGIVLHPASKGHLTLKLINGYNASYLIEEIRNLEIIDSS | -0.763 |
| HMGNKDAQLVHLAKMNEIQIELMKTGRGYMVTDQNVYNLAKKMGENMGFKHPDLFLTDPAKV | -0.0687 |
| HMDLIISDIRMPEMRGDDFLEWIKANELFKHIPVIMLSSEDSTTERIRLLEIGAEDYIVKPFNPMELKIR | -1.01 |
| HMGQAVTMLKAGRLLANAKGTGAPVRSLEPGMLLYPTGVKEGTMWEVEDEMGNKGWVNSTLMETA | -0.284 |
| HMDKLNKELVSRMMDDAAWKELSKDFPWTEQLLEKYMNYVDWKEISRNYNVVWTKSLLEKFKHRLDWHE | -1.1 |
| HMNQILDFTREVKNLPEQDKIKIVEALWSIIYSNKDADIYETNLMRRLAGLLYIDNKTMGDIKEKIKQNL | -0.421 |
| HMDLLIFSPSLGQHVRDLKRVIDRLHQHGIPVRWQKAKLLREEIEYIGWTWKSGGLIDPTNV | 0.337 |
| HMERFMEFVITDTQQGQRLDVVLTETTEHLGSRSHMQRSIRAGLVSIDGITTTRASTKVSSGQIIRVEPT | -0.629 |
| HMAPSIPSGADIRAAREAAGINLRDFARIVDGPGIAIWSRYETGTPIRVKSISPEVWQKVRDFISQHG | 0.228 |
| HMLEQISDPEVLSKLADEVLSQQEKMVMDYRKGKTAAFQGLMGQMMKKTKGKGNPAKIQEILAQKL | -0.192 |
| HMHITSFTIKQADQIVGTTPVREQAVGAAKARAQQTGTPVSVIAYLDTGEEREVIIHPDGTN | -0.328 |
| HMVIPATPTARRAKIAGLLADRSVRSQGELLTLLADAGIEVTQATLSRDLEALGAVKVRDGRGLVYAVPG | 0.365 |
| HMKRIDTILETFAKVHKHIPSKLILLGDGPELLDMRKIARSLHIEDDVLFLGKQDQVSKFYQMADLVLLL | 0.15 |
| HMDGDFGMNLDWQPSEHFPTLARQAGIPADHITAEAIAEFRSYWIGQGKAMTQYQWDHKLLTNLKATKTR | 0.106 |
| HMETGLSNYEFKRIREQAEALLSDGQVRRINDLVDSIKNENAEKVIRVIRFLIDTEELILEDDRVSAKKS | -1.42 |
| HMAFEDYAGEYRSAADFAESLHEDTGTEIPESLRYYIDWQALARDMALNGEIMVFQTGFDEVHIFWS | -0.878 |
| HMKRQDFEFLVNLLRQNAGWDFDEEQYFVVDKKISNFIREKGYASVEDLIDELKVGAKPLISQVVESLAL | -2.01 |
| HMLNWINSDVLERFNSLTKEKQKAIVADTETRLNGLSQARFKVAKSSSNERLIAEFAIEINEAIMRAAAL | -0.894 |
| HMGIKSSASLQEAAEKAQSAYYDIEHSGVATAVDIQRAWVAMVAAQIDAGEKLDSGTITLYERLKTST | -0.0327 |
| HMTSPELIELGERIRKRRQEMNLSQEALAEKAGISINTVSRVEGGQTAMSIEIFRKMIEILETDANGL | -0.804 |
| HMAWIGEHTVTSEDTLSHIALKFYGHATPPYYKLIYEANKAIIGDNMNIIVPGQVLRIPALPEEL | -0.592 |
| HMSEILQLINKIDKKLEKGYTFANISRNHYEKIYKEEILNLYKTSKLKGEAEDSIKEVLESLLGDLRKP | 0.368 |
